Source: patent publication US20090191217A1 (published 2009)
Changes are numbered by the printed parent chain.

T1: Interleukin-1 receptor type 1 (IL-1R1) on cells (human, UniProt P14778 18-569)
T1 sequence (looked up): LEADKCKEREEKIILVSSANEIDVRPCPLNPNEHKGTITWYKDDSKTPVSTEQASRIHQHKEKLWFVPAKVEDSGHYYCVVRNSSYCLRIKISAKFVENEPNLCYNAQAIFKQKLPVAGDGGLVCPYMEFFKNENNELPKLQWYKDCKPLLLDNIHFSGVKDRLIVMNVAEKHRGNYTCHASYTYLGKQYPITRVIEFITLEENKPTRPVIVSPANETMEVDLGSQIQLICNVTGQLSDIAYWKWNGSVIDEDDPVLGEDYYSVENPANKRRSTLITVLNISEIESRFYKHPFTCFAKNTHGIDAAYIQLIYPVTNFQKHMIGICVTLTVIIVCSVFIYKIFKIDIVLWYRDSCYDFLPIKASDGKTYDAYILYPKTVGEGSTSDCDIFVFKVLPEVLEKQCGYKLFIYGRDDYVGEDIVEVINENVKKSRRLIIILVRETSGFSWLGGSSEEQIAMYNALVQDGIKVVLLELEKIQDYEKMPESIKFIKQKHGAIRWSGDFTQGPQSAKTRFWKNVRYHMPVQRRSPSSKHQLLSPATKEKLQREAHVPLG

B1: DOM4-122-23 (other)
VL: DIQMTQSPSSLSASVGDRVTITCRASQWIGRELRWYQQKPGKAPMFLIYHASRLQRGVPSRFSGSGSGTDFTLTISSLQPEDFATYYCQQYHGWPLTFGQGTKVEIKR
B2: DOM4-122-6 (other)
VL: B1 VL with R56S
B3: DOM4-129-1 (other)
VL: B1 VL with W28N, G30D, G93D, W94F
B4: DOM4-130-3 (other)
VL: DIQMTQSPSSLSASVGDRVTITCRASQDIYLNLDWYQQKPGKAPKLLIYGTSNLQSGVPSRFSGSGSGTDFTLTISSLQPEDFATYYCQPSFYFPYTFGQGTKVEIRR
B5: DOM4-130-46 (other)
VL: B4 VL with Y49N, G50F, T51G, N53E

Target: T1, Interleukin-1 receptor type 1 (IL-1R1) …
Assay: cell-based or functional assay

ND50, inhibition of IL-1-induced IL-8 release from MRC-5 cells [nM]	Binder
~1	B1
~10	B2
~10	B3
~30	B4
~1	B5
